Data reported in the supplement of paper PMC7877785.
± gives the uncertainty stated by the source.

Test: self-splicing fitness, log relative to wild type (ln ratio); higher = more splicing; Tetrahymena group I intron in knt gene, E. coli kanamycin selection, DiMSum; sequences stand for … in CUCUCU…GGAGGGAAAAGUUAUCAGGCAUGCACCUGGUAGCUAGUCUUUAAACCAAUAGAUUGCAUCGGUUUAAAAGGCAAGACCGUCAAAUUGCGGGAAAGGGGUCAACAGCCGUUCAGUACCAAGUCUCAGGGGAAACUUUGAGAUGGCCUUGCAAAGGGUAUGGUAAUAAGCUGACGGACAUGGUCCUAACCACGCAGCCAAGUCCUAAGUCAACAGAUCUUCUGUUGAUAUGGAUGCAGUUCACAGACUAAAUGUCGGUCGGGGAAGAUGUAUUCUUCUCAUAAGAUAUAGUCGGACCUCUCCUUAAUGGGAGCUAGCGGAUGAAGUGAUGCAACACUGGAGCCGCUGGGAACUAAUUUGUAUGCGAAAGUAUAUUGAUUAGUUUUGGAGUACUCGUGGUCG
Summary of the method: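 Fitness was computed with DiMSum as the error-weighted combination of replicate fold changes, kanamycin versus none, each normalised to wild type. The library randomised all eight intron nucleotides of the P1ex region, with the intron placed in the knt kanamycin-resistance gene on pET-22b(+) in E. coli BL21(DE3). Six replicate transformations were grown overnight at 37°C or 30°C on LB agar with or without 25 μg/mL kanamycin, plus 100 μg/mL carbenicillin, 50 μM IPTG and 0.2% rhamnose. Pooled colonies were amplicon-sequenced on an Illumina HiSeq 2500.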

Sequence: AAUUAGCAAUAUUACGUGCU
- self-splicing fitness (ln) (30 °C): -2.18 ± 0.12
- self-splicing fitness (ln) (37 °C): -1.33 ± 0.11

Sequence: GAGUAGCAAUAUUACGGUUC
- self-splicing fitness (ln) (30 °C): -1.02 ± 0.12
- self-splicing fitness (ln) (37 °C): -2.36 ± 0.3

Sequence: ACGGAGCAAUAUUACGAUUA
- self-splicing fitness (ln) (30 °C): -2.6 ± 0.25
- self-splicing fitness (ln) (37 °C): -2.23 ± 0.29

Sequence: CCUCAGCAAUAUUACGAUUA
- self-splicing fitness (ln) (30 °C): -2.62 ± 0.22
- self-splicing fitness (ln) (37 °C): -2.23 ± 0.19

Sequence: AAGAAGCAAUAUUACGGGGA
- self-splicing fitness (ln) (30 °C): -3.37 ± 0.29
- self-splicing fitness (ln) (37 °C): -2.18 ± 0.17

Sequence: GGCUAGCAAUAUUACGGGGU
- self-splicing fitness (ln) (30 °C): -2.25 ± 0.1
- self-splicing fitness (ln) (37 °C): -1.29 ± 0.11

Sequence: GAGGAGCAAUAUUACGGGCG
- self-splicing fitness (ln) (30 °C): -2.68 ± 0.32
- self-splicing fitness (ln) (37 °C): -1.56 ± 0.24

Sequence: AUUAAGCAAUAUUACGAUAU
- self-splicing fitness (ln) (30 °C): -1.2 ± 0.081
- self-splicing fitness (ln) (37 °C): -0.415 ± 0.096

Sequence: UAAGAGCAAUAUUACGCGGA
- self-splicing fitness (ln) (30 °C): -2.95 ± 0.28
- self-splicing fitness (ln) (37 °C): -2.35 ± 0.33

Sequence: CCAAAGCAAUAUUACGAGAG
- self-splicing fitness (ln) (30 °C): -2.24 ± 0.23
- self-splicing fitness (ln) (37 °C): -1.91 ± 0.2

Sequence: CUUGAGCAAUAUUACGUCGU
- self-splicing fitness (ln) (30 °C): -3.97 ± 0.18
- self-splicing fitness (ln) (37 °C): -2.75 ± 0.2

Sequence: CGGAAGCAAUAUUACGAUGC
- self-splicing fitness (ln) (37 °C): -2.78 ± 0.36

Sequence: AAGAAGCAAUAUUACGGGGU
- self-splicing fitness (ln) (30 °C): -4.04 ± 0.29
- self-splicing fitness (ln) (37 °C): -2.64 ± 0.2

Sequence: GAUAAGCAAUAUUACGAUAA
- self-splicing fitness (ln) (30 °C): -1.46 ± 0.13
- self-splicing fitness (ln) (37 °C): 0.344 ± 0.13

Sequence: GACGAGCAAUAUUACGCAUA
- self-splicing fitness (ln) (30 °C): -1.6 ± 0.21
- self-splicing fitness (ln) (37 °C): -0.87 ± 0.17

Sequence: UUUAAGCAAUAUUACGGAUA
- self-splicing fitness (ln) (30 °C): -1.12 ± 0.18
- self-splicing fitness (ln) (37 °C): -1.13 ± 0.18

Sequence: AAGUAGCAAUAUUACGAGCC
- self-splicing fitness (ln) (30 °C): -2.87 ± 0.22
- self-splicing fitness (ln) (37 °C): -1.34 ± 0.25

Sequence: AUUCAGCAAUAUUACGUAAG
- self-splicing fitness (ln) (30 °C): -0.27 ± 0.069
- self-splicing fitness (ln) (37 °C): -0.22 ± 0.093

Sequence: CUAUAGCAAUAUUACGAUAC
- self-splicing fitness (ln) (37 °C): -2.61 ± 0.33

Sequence: UGGCAGCAAUAUUACGUUAU
- self-splicing fitness (ln) (30 °C): -2.25 ± 0.11
- self-splicing fitness (ln) (37 °C): -1.91 ± 0.16

Sequence: AUUCAGCAAUAUUACGAACA
- self-splicing fitness (ln) (30 °C): -0.36 ± 0.099
- self-splicing fitness (ln) (37 °C): -0.341 ± 0.11

Sequence: CUCUAGCAAUAUUACGAGGA
- self-splicing fitness (ln) (30 °C): -2.32 ± 0.19
- self-splicing fitness (ln) (37 °C): -1.59 ± 0.17

Sequence: GGCCAGCAAUAUUACGUUUC
- self-splicing fitness (ln) (30 °C): -1.4 ± 0.095
- self-splicing fitness (ln) (37 °C): -0.362 ± 0.089

Sequence: UUUUAGCAAUAUUACGCGAA
- self-splicing fitness (ln) (30 °C): -1.57 ± 0.28
- self-splicing fitness (ln) (37 °C): -1.08 ± 0.39

Sequence: GUCGAGCAAUAUUACGUAGG
- self-splicing fitness (ln) (30 °C): -3.66 ± 0.18
- self-splicing fitness (ln) (37 °C): -2.08 ± 0.16

Sequence: GGUUAGCAAUAUUACGCCUC
- self-splicing fitness (ln) (30 °C): -0.314 ± 0.17
- self-splicing fitness (ln) (37 °C): -1.4 ± 0.2

Sequence: ACUUAGCAAUAUUACGGGGA
- self-splicing fitness (ln) (30 °C): -1.38 ± 0.12
- self-splicing fitness (ln) (37 °C): -1.18 ± 0.15

Sequence: ACUGAGCAAUAUUACGCGGU
- self-splicing fitness (ln) (30 °C): -2.46 ± 0.31

Sequence: CUUUAGCAAUAUUACGCUAA
- self-splicing fitness (ln) (30 °C): -4.31 ± 0.46
- self-splicing fitness (ln) (37 °C): -3.2 ± 0.47

Sequence: GUUGAGCAAUAUUACGUCUA
- self-splicing fitness (ln) (30 °C): -2.72 ± 0.46
- self-splicing fitness (ln) (37 °C): -0.927 ± 0.24

Sequence: AUCGAGCAAUAUUACGUCAU
- self-splicing fitness (ln) (30 °C): -2.35 ± 0.14
- self-splicing fitness (ln) (37 °C): -1.65 ± 0.15

Sequence: UACAAGCAAUAUUACGGUGC
- self-splicing fitness (ln) (30 °C): -3.55 ± 0.26
- self-splicing fitness (ln) (37 °C): -2.35 ± 0.21

Sequence: CCUUAGCAAUAUUACGCUUG
- self-splicing fitness (ln) (30 °C): -3.86 ± 0.3
- self-splicing fitness (ln) (37 °C): -3.5 ± 0.37

Sequence: GAAGAGCAAUAUUACGGACU
- self-splicing fitness (ln) (30 °C): -2.93 ± 0.22
- self-splicing fitness (ln) (37 °C): -1.14 ± 0.13

Sequence: CGAUAGCAAUAUUACGUGCA
- self-splicing fitness (ln) (30 °C): -2.67 ± 0.15
- self-splicing fitness (ln) (37 °C): -2.13 ± 0.16

Sequence: GCAAAGCAAUAUUACGCCAU
- self-splicing fitness (ln) (30 °C): -2.9 ± 0.17
- self-splicing fitness (ln) (37 °C): -1.6 ± 0.22

Sequence: GAUAAGCAAUAUUACGGGAC
- self-splicing fitness (ln) (30 °C): -2.82 ± 0.13
- self-splicing fitness (ln) (37 °C): -1.18 ± 0.1

Sequence: GGAUAGCAAUAUUACGGGUA
- self-splicing fitness (ln) (30 °C): -2.41 ± 0.16
- self-splicing fitness (ln) (37 °C): 0.0404 ± 0.13

Sequence: GUCCAGCAAUAUUACGCUUU
- self-splicing fitness (ln) (30 °C): -0.441 ± 0.06
- self-splicing fitness (ln) (37 °C): 0.678 ± 0.076

Sequence: CCCUAGCAAUAUUACGGGGA
- self-splicing fitness (ln) (30 °C): -3.28 ± 0.23
- self-splicing fitness (ln) (37 °C): -2.41 ± 0.2

Sequence: AAGGAGCAAUAUUACGGCAU
- self-splicing fitness (ln) (30 °C): -2.77 ± 0.18
- self-splicing fitness (ln) (37 °C): -2.05 ± 0.23

Sequence: GGCUAGCAAUAUUACGCUCC
- self-splicing fitness (ln) (30 °C): -2.32 ± 0.26

Sequence: UUGCAGCAAUAUUACGGAAA
- self-splicing fitness (ln) (30 °C): -2.52 ± 0.14
- self-splicing fitness (ln) (37 °C): -0.504 ± 0.1
